{"source": "patent US20250051458A1", "about": "“Methods for Treating Neurodegeneration Targeting IGF1/IGF1R” (The Schepens Eye Research Institute, Inc., priority 2021, published 2025)", "molecules": {"B1": {"name": "IGFBPL1: insulin-like growth factor binding protein like protein 1; recombinant protein (R&D system, 4130-BL) (protein)", "chain": "LGLRDAGRRHPECSPCQQDRCPAPSPCPAPWISARDECGCCARCLGAEGASCGGPVGSRCGPGLVCASRASGTAPEGTGLCVCAQRGAVCGSDGRSYSSICALRLRARHAPRAHHGHLHKARDGPCEFAPVVLMPPRDIHNVTGTQVFLSCEVKAVPTPVITWKKVKHSPEGTEGLEELPGDHVNIAVQVRGGPSDHETTSWILINPLRKEDEGVYHCHAANAIGEAQSHGTVTVLDLNRYKSLYSSVPGDLL"}}, "key": {"[1]": {"tested_on": "microglial cultures isolated from the retina and brain or the BV2 cells", "experiment": "COX2 immunostaining in LPS-treated microglial cultures (retina, brain, BV2 cells)", "type": "cell-based, mouse", "settings": "IGFBPL1 added 6 hr after LPS", "description": "For primary retinal microglia isolation, microglia cells were isolated from mice retina using magnetic CD11b microbead (BD, 558013). The purification protocol was following manufacture's instructions. Briefly, the papain dissociated retinal cells were resuspended into diluted BD IMag™ Buffer (BD, Cat. No. 552362). After 6-8 mins washing at 300 g, 50 ul of magnetic CD11b microbeads were added for every 10^7 total cells and then incubated for 30 mins at 6-12° C. Then bring the BD IMag-particle labeling volume up to 1-8×10^7 cells/ml with 1×BD IMag™ buffer, and immediately place the tube on the Cell Separation Magnet (BD, Cat. No. 552311). Carefully aspirate off the supernatant after 6-8 minutes incubation at room temperature, and then repeat two times washing. The positive fractions left in the tube were then collected for culture. Around 3000 cells per well were seeded in 8-well Nunc® Lab-Tek™ II Chamber Slide™ (Thermo Scientific, Cat. No. 154534PK). The isolated microglial cells were cultured at 37° C. with 5% C02 in DMEM with 10% FBS and 50 ng/ml rmCSF1 (PeproTech, Cat. No. 315-02).\nFor primary mouse brain microglia isolation, we optimized our protocol based previously reported protocol^2. First step was to collect brain after perfusing mice with saline. […]"}, "[2]": {"tested_on": "Igf-1r conditional knock out on microglia mice", "experiment": "Microbead-induced glaucoma in mice with Igf-1r specific knock out on microglia", "type": "in vivo, mouse", "description": "Adult (10-12 weeks old) male and female C57BL/6J (B6) (The Jackson Laboratory, 000664), Cx3cr1^GFP (The Jackson Laboratory, 005582), DBA/2J mice (The Jackson Laboratory, 000671) Igf1r^(lax) inducible knockout mice (The Jackson Laboratory, 012251) as well as Cx3cr1^tm2.1(cre/ERT2) mice were obtained from the Jackson Laboratory. Igf1r^(lax) mice were crossed with Cx3cr1^tm2.1(cre/ERT2) mice to generated Igf-1r specific knock out on microglia after 3 consecutive days injection of 100 mg/kg tamoxifen to mice. IGFBPL1 deficiency mice at a C57BL/6J genetic background (Knockout Mouse Project Repository, University of California at Davis) were used in following experiments. Mice of both genders were randomized into control and experimental groups. All experimental procedures and use of animals were approved and monitored by the Institute's Animal Care Committee and conform to the standards of the National Institute of Health and the Association for Research in Vision and Ophthalmology.\nElevated IOP was induced unilaterally in adult mice (10-12 weeks old) as described previously^21. […] Antibiotic ointment will be applied topically on the cornea after the injection, and then leave the operated mice to recover on a warm pad and monitored every 15 minutes until awake and fully sternal. […]"}}, "data": [{"molecule": "B1", "values": [{"measurement": "LPS-induced COX2 upregulation", "setting": "[1]", "value": "suppressed"}, {"measurement": "pSTR amplitude and RGCs (neuroprotective effect)", "setting": "[2]; IGFBPL1 at day 3, 10 and 17 post microbeads-induced glaucoma, IGF-1R knocked out on microglia", "value": "neuroprotective effects diminished"}, {"measurement": "Contrast sensitivity (CS) and visual acuity (VA)", "setting": "[2]; Igf-1r−/− mice with MB induced glaucoma", "value": "very limited protective capacity"}]}]}
